According to PMC5667506, “Potent and selective inhibition of SH3 domains with dirhodium metalloinhibitors” (Chemical Science, 2015):

How the values were obtained:
Lyn SH3 H96A mutant = target: T1, Lyn SH3 H96A mutant (Homo sapiens, UniProt P07948, H96A); assay: Binding to Lyn SH3 H96A mutant; details: read-out: affinity
T1 construct: The lyn SH3 domain was amplified by PCR using Phusion DNA polymerase; GST (N, cleaved yes); made in house; host or cells: E. coli BL21 (DE3)
Experimental: (§1) The remarkable 6 nM affinity, far stronger than that of any reported non-protein ligand for SH3 domains, led us to study the structural basis of the observed affinity. […] The H78A and H96A double mutant binds much more weakly (>5 μM). […] That the majority of the stabilization energy comes from the first histidine coordination is consistent with the negative cooperativity generally seen for axial coordination to rhodium(II): a second coordination in solution is roughly two orders of magnitude less favorable.[40]–[43]
(§2) Abl SH3 domain preparation. The abl SH3 domain was amplified by PCR using Phusion DNA polymerase (Finnzymes). The
(§3) reactions were performed following manufacture's protocol with Phusion HF buffer and 5% DMSO. Primers were designed as
(§4) follows: 5'-[…]-3' (BamHI site underlined) and a reverse primer, 5'-
(§5) -3' (EcoRI site underlined). The resultant product was digested with
(§6) BamHI and EcoRI and subcloned into BamHI-EcoRI sites of pGex-KTO. Confirmed PCR fidelity by sequencing.
(§7) Hck SH3 domain preparation. The hck SH3 domain was amplified by PCR using Phusion DNA polymerase (Finnzymes). The
(§8) Lyn SH3 domain preparation. The lyn SH3 domain was amplified by PCR using Phusion DNA polymerase (Finnzymes). The […]
(§9) assessed by SDS-PAGE using 12% Bis-Tris gels (Invitrogen). […]
(§10) concentrated, and aliquoted for storage at –80 °C. Concentration was determined using the absorbance at 280 nm (NanoDrop, […]

[1] = target: T2, Lyn SH3 H78A and H96A double mutant (Homo sapiens, UniProt P07948, H78A/H96A); assay: Binding to Lyn SH3 H78A and H96A double mutant; details: read-out: affinity
T2 construct: The lyn SH3 domain was amplified by PCR using Phusion DNA polymerase; GST (N, cleaved yes); made in house; host or cells: E. coli BL21 (DE3)
T2 sequence (P07948 63-123 H78A/H96A limits assumed): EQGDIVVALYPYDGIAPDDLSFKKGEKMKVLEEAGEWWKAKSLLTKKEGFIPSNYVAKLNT
Experimental: as §1, §2, §3, §4, §5, §6, §7, §8, §9, §10

T1 sequence (P07948 63-123 H96A limits assumed): as the sequence (P07948 63-123 H78A/H96A limits assumed) above, with A16H counted along it

Substance: AcVELARRPLPPLPN-NH2 (Ac-VELARRPLPPLPN-NH2; also: Glu2 side-chain carboxylate bound to Rh2(OAc)3) [S2E^Rh, rhodium(II) metallopeptide made from S2E peptide (Ac…-NH2) and Rh2(tfa)(OAc)3]
- Kd (Lyn SH3 H96A mutant): 39 nM
- Kd [1]: > 5000 nM
